Reference: the supplement of paper PMC10201428
± gives the standard deviation of the averaged measurements.

Key:
[1] = tested on: VchCAST RNA-guided transposition machinery (E. coli BL21(DE3) host, lacZ target); assay: relative integration efficiency (T-RL orientation) vs wild-type transposon end (log2 (normalized fold change)); transposon end mutated: right end (5 bp flank + 75 bp right end); higher = more efficient transposition
In short: (§1)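 Barcode abundances in input plasmids and in genomic integration junctions were obtained by PCR amplification and Illumina sequencing. These came from E. coli BL21(DE3) co-transformed with a T7-driven effector plasmid and a pUC57 donor carrying 1549 left-end or 1849 right-end transposon variants, then plated with 0.1 mM IPTG at 37°C for 18 h. Relative integration efficiency is the output/input fold change, normalised to reference barcodes and log-transformed.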

[2] = tested on: VchCAST RNA-guided transposition machinery (E. coli BL21(DE3) host, lacZ target); assay: relative integration efficiency (T-LR orientation) vs wild-type transposon end (log2 (normalized fold change)); transposon end mutated: right end (5 bp flank + 75 bp right end); higher = more efficient transposition
In short: as §1

Sequence | relative integration efficiency (log2) [1] | relative integration efficiency (log2) [2]
ACATTTGTTCATACAACCATAAAATGATAATTACCACCCATAAATTGATAATTATCACACCCATTTAACTATAACGCTCTGATCATAGTCAGACCAACATTGCTACGACCCGTATTCGCACCGACAC | -1.38 ± 0.23 | -0.231 ± 0.23
ACATTTGTTCATACAACCATAAAATGATAATTACCACCCATACATTGATAATTATCACACCCATTTAACTATAACGCTCTGATCATAGTCAGACCAACATTGCTACGACCCGTATTCGCACCGACAC | -3.31 ± 0.39 | -2.29 ± 0.1
ACATTTGTTCATACAACCATAAAATGATAATTACCACCCCTAAATTGATAATTATCACACCCATTTAACTATAACGCTCTGATCATAGTCAGACCAACATTGCTACGACCCGTATTCGCACCGACAC | -4.21 ± 0.08 | -2.87 ± 0.85
ACATTTGTTCATACAACCATAAAATGATAATTACCACCCCTACATTGATAATTATCACACCCATTTAACTATAACGCTCTGATCATAGTCAGACCAACATTGCTACGACCCGTATTCGCACCGACAC | -4.944 ± 0.019 | -3.25 ± 0.45
ACATTTGTTCATACAACCATAAAATGATAATTCACCCATAAATTGATAATTATCACACCCCAATTTAACTATAACGCTCTGATCATAGTCAGACCAACATTGCTACGACCCGTATTCGCACCGACAC | -2.26 ± 0.18 | -0.502 ± 0.27
ACATTTGTTCATACAACCATAAAATGATAATTCACCCATCAATTGATAATTATCACACCCCAATTTAACTATAACGCTCTGATCATAGTCAGACCAACATTGCTACGACCCGTATTCGCACCGACAC | -4.48 ± 0.28 | -2.51 ± 0.15
ACATTTGTTCATACAACCCTAAAATGATAATTACACCCATAAATGGATAATTATCACACCCAATTTAACTATAACGCTCTGATCATAGTCAGACCAACATTGCTACGACCCGTATTCGCACCGACAC | -3.9 ± 0.37 | -2.78 ± 0.54
ACATTTGTTCATACAACCCTAAAATGATAATTACACCCATAAATGGATAATTATCACCCCCAATTTAACTATAACGCTCTGATCATAGTCAGACCAACATTGCTACGACCCGTATTCGCACCGACAC | -3.89 ± 0.38 | -2.74 ± 0.46
ACATTTGTTCATACAACCCTAAAATGATAATTACACCCATAAATGGATCATTATCACACCCAATTTAACTATAACGCTCTGATCATAGTCAGACCAACATTGCTACGACCCGTATTCGCACCGACAC | -5 ± 0.2 | -3.19 ± 0.38
ACATTTGTTCATACAACCCTAAAATGATAATTACACCCATAAATGGATCATTATCACCCCCAATTTAACTATAACGCTCTGATCATAGTCAGACCAACATTGCTACGACCCGTATTCGCACCGACAC | -4.59 ± 0.14 | -3.98 ± 0.81
ACATTTGTTCATACAACCCTAAAATGATAATTACACCCATAAATTCATAATTATCACACCCAATTTAACTATAACGCTCTGATCATAGTCAGACCAACATTGCTACGACCCGTATTCGCACCGACAC | -5.31 ± 0.95 | -2.644 ± 0.026
ACATTTGTTCATACAACCCTAAAATGATAATTACACCCATAAATTCATCATTATCACACCCAATTTAACTATAACGCTCTGATCATAGTCAGACCAACATTGCTACGACCCGTATTCGCACCGACAC | -5.84 ± 0.57 | -3.3 ± 0.36
ACATTTGTTCATACAACCCTAAAATGATAATTACACCCATAAATTCATCATTATCACCCCCAATTTAACTATAACGCTCTGATCATAGTCAGACCAACATTGCTACGACCCGTATTCGCACCGACAC | -5.29 ± 0.22 | -3.65 ± 0.85
ACATTTGTTCATACAACCCTAAAATGATAATTACACCCATAAATTGATAATTATCACACCCAATTTAACTATAACGCTCTGATCATAGTCAGACCAACATTGCTACGACCCGTATTCGCACCGACAC | -2.24 ± 0.22 | -1.03 ± 0.5
ACATTTGTTCATACAACCCTAAAATGATAATTACACCCATAAATTGATAATTATCACCCCCAATTTAACTATAACGCTCTGATCATAGTCAGACCAACATTGCTACGACCCGTATTCGCACCGACAC | -2.74 ± 0.42 | -0.953 ± 0.35
ACATTTGTTCATACAACCCTAAAATGATAATTACACCCATAAATTGATCATTATCACACCCAATTTAACTATAACGCTCTGATCATAGTCAGACCAACATTGCTACGACCCGTATTCGCACCGACAC | -3.41 ± 0.23 | -1.36 ± 0.72

Sequence | relative integration efficiency (log2) [1] | relative integration efficiency (log2) [2]
ACATTTGTTCATACAACCCTAAAATGATAATTACACCCATAAATTGATCATTATCACCCCCAATTTAACTATAACGCTCTGATCATAGTCAGACCAACATTGCTACGACCCGTATTCGCACCGACAC | -2.63 ± 0.59 | -0.724 ± 0.35
ACATTTGTTCATCCAACCATAAAATGATAATTACACCCATAAATGGATAATTATCACACCCAATTTAACTATAACGCTCTGATCATAGTCAGACCAACATTGCTACGACCCGTATTCGCACCGACAC | -2.08 ± 0.37 | -0.431 ± 0.44
ACATTTGTTCATCCAACCATAAAATGATAATTACACCCATAAATGGATCATTATCACACCCAATTTAACTATAACGCTCTGATCATAGTCAGACCAACATTGCTACGACCCGTATTCGCACCGACAC | -2.36 ± 0.26 | -1.01 ± 0.52
ACATTTGTTCATCCAACCATAAAATGATAATTACACCCATAAATTCATAATTATCACACCCAATTTAACTATAACGCTCTGATCATAGTCAGACCAACATTGCTACGACCCGTATTCGCACCGACAC | -2.84 ± 0.39 | -1.1 ± 0.16
ACATTTGTTCATCCAACCATAAAATGATAATTACACCCATAAATTCATCATTATCACACCCAATTTAACTATAACGCTCTGATCATAGTCAGACCAACATTGCTACGACCCGTATTCGCACCGACAC | -2.92 ± 0.45 | -0.745 ± 0.19
ACATTTGTTCATCCAACCATAAAATGATAATTACACCCATAAATTGATAATTATCACACCCAATTTAACTATAACGCTCTGATCATAGTCAGACCAACATTGCTACGACCCGTATTCGCACCGACAC | -1.42 ± 0.29 | 0.451 ± 0.23
ACATTTGTTCATCCAACCATAAAATGATAATTACACCCATAAATTGATCATTATCACACCCAATTTAACTATAACGCTCTGATCATAGTCAGACCAACATTGCTACGACCCGTATTCGCACCGACAC | -2.44 ± 0.32 | 0.101 ± 0.12
ACATTTGTTCTATCAACCATAAAATGATAATTACACCCATAAATTGATAATTATCACACCCATAAATTGATATTGCCTCTGATCATAGTCAGACCAACATTGCTACGACCCGTATTCGCACCGACAC | -1.53 ± 0.17 | -4.42 ± 0.25
ACATTTGTTCTTACAACCATAAAATGATAATTACACCCATAAATTGATAATTATCACACCCATAAATTGATATTGCCTCTGATCATAGTCAGACCAACATTGCTACGACCCGTATTCGCACCGACAC | -0.825 ± 0.14 | -3.55 ± 0.75
ACATTTGTTGAATCAACCATAAAATGATAATTACACCCATAAATTGATAATTATCACACCCATAAATTGATATTGCCTCTGATCATAGTCAGACCAACATTGCTACGACCCGTATTCGCACCGACAC | 0.38 ± 0.14 | 0.00973 ± 0.13
ACATTTGTTGAATGTACCATAAAATGATAATTACACCCATAAATTGATAATTATCACACCCATAAATTGATATTGCCTCTGATCATAGTCAGACCAACATTGCTACGACCCGTATTCGCACCGACAC | -0.836 ± 0.071 | -1.92 ± 0.32
ACATTTGTTGACAACCATAAAATGATAATTACACCCATAAATTGATAATTATCACACCCATAAATTGATATTGCCTCTGATCATAGTCAGACCAACATTGCTACGACCCGTATTCGCACCGACACTG | -7.09 ± 0.12 | -6.81 ± 1.7
ACATTTGTTGAGCACACCATAAAATGATAATTACACCCATAAATTGATAATTATCACACCCATAAATTGATATTGCCTCTGATCATAGTCAGACCAACATTGCTACGACCCGTATTCGCACCGACAC | -0.523 ± 0.031 | -1.83 ± 0.7
ACATTTGTTGAGCCAACCATAAAATGATAATTACACCCATAAATTGATAATTATCACACCCATAAATTGATATTGCCTCTGATCATAGTCAGACCAACATTGCTACGACCCGTATTCGCACCGACAC | -0.297 ± 0.0032 | -0.934 ± 0.11
ACATTTGTTGATAAAACCATAAAATGATAATTAAACCCATAAATTGATAATTATCAAACCCATAAATTGATATTGCCTCTGATCATAGTCAGACCAACATTGCTACGACCCGTATTCGCACCGACAC | -0.472 ± 0.18 | -0.129 ± 0.36
ACATTTGTTGATAAAACCATAAAATGATAATTAGACCCATAAATTGATAATTATCACACCCATAAATTGATATTGCCTCTGATCATAGTCAGACCAACATTGCTACGACCCGTATTCGCACCGACAC | -1.09 ± 0.15 | -1.02 ± 0.36
